Assay results from patent publication US20140242080A1 (Hoffmann-La Roche, published 2014).
Changes are numbered by the printed parent chain.

B1: Parental M4-3/ML2 IgG (antibody, V domains shown)
VH: QVQLQESGPGLVKPSQTLSLTCTVSGGSITSGYYWNWIRQHPGKGLEWIGYITYDGSNNYNPSLKSRVTISRDTSKNQFSLKLSSVTAADTAVYYCADFDYWGQGTLVTVSS
VL: DIQMTQSPSSLSASVGDRVTITCRASQGIRNYLNWYQQKPGKAPKLLIYYTSSLHSGVPSRFSGSGSGTDFTLTISSLQPEDFATYYCQQYSKLPWTFGQGTKVEIK
notes: Human IgG1 format, from mammalian production; also called M4-3 ML2 (parental); anti-MCSP antibody M4-3/ML2
B2: M4-3(C1)/ML2(E10) IgG (antibody, V domains shown)
VH: B1 VH with Y54F
VL: B1 VL with Q27Y, N31G, Y87H
notes: Human IgG1
B3: M4-3(C1)/ML2(G3) IgG (antibody, V domains shown)
VH: B1 VH with Y54F
VL: DIQMTQSPSSLSASVGDRVTITCRASQGIRNYLNWYQQKPGKAPKLLIYYTSSLHSGVPSRFSGSGSGTDYTLTISSLQPEDFATYYCQQYSALPWTFGQGTKVEIKR
notes: Human IgG1
B4: M4-3(C1)/ML2(C5) IgG (antibody, V domains shown)
VH: B1 VH with Y54F
VL: B1 VL with Q27R, N31E, S52G, K93E
notes: Human IgG1
B5: 2 + 1 IgG Crossfab, inverted; CL/CH1 exchange (LC007/V9) (anti-MCSP/anti-huCD3) (bispecific antibody)
chain 1: DIVLTQSPSSLSASLGDRVTISCSASQGIRNYLNWYQQRPDGTVKLLIYYTSSLHSGVPSRFSGSGSGTDYSLTISNLEPEDIATYYCQQYSKLPWTFGGGTKLEIKRTVAAPSVFIFPPSDEQLKSGTASVVCLLNNFYPREAKVQWKVDNALQSGNSQESVTEQDSKDSTYSLSSTLTLSKADYEKHKVYACEVTHQGLSSPVTKSFNRGEC
chain 2: EVQLQESGPGLVKPSQSLSLTCSVTGYSITSGYYWNWIRQFPGNKLEWMGYITYDGSNNYNPSLKNRISITRDTSKNQFFLKLNSVTTEDTATYYCADFDYWGQGTTLTVSSASTKGPSVFPLAPSSKSTSGGTAALGCLVKDYFPEPVTVSWNSGALTSGVHTFPAVLQSSGLYSLSSVVTVPSSSLGTQTYICNVNHKPSNTKVDKKVEPKSCDKTHTCPPCPAPEAAGGPSVFLFPPKPKDTLMISRTPEVTCVVVDVSHEDPEVKFNWYVDGVEVHNAKTKPREEQYNSTYRVVSVLTVLHQDWLNGKEYKCKVSNKALGAPIEKTISKAKGQPREPQVCTLPPSRDELTKNQVSLSCAVKGFYPSDIAVEWESNGQPENNYKTTPPVLDSDGSFFLVSKLTVDKSRWQQGNVFSCSVMHEALHNHYTQKSLSLSPGK
chain 3: DIQMTQSPSSLSASVGDRVTITCRASQDIRNYLNWYQQKPGKAPKLLIYYTSRLESGVPSRFSGSGSGTDYTLTISSLQPEDFATYYCQQGNTLPWTFGQGTKVEIKSSASTKGPSVFPLAPSSKSTSGGTAALGCLVKDYFPEPVTVSWNSGALTSGVHTFPAVLQSSGLYSLSSVVTVPSSSLGTQTYICNVNHKPSNTKVDKKVEPKSC
chain 4: not shown
notes: also called 2+1 IgG Crossfab, inverted (V9)
B6: 2 + 1 IgG Crossfab; CL/CH1 exchange (LC007/anti-CD3) (anti-MCSP/anti-huCD3) (bispecific antibody)
chain 1: B5 chain 1
chain 2: B5 chain 2
chain 3: QAVVTQESALTTSPGETVTLTCRSSTGAVTTSNYANWVQEKPDHLFTGLIGGTNKRAPGVPARFSGSLIGDKAALTITGAQTEDEAIYFCALWYSNLWVFGGGTKLTVLSSASTKGPSVFPLAPSSKSTSGGTAALGCLVKDYFPEPVTVSWNSGALTSGVHTFPAVLQSSGLYSLSSVVTVPSSSLGTQTYICNVNHKPSNTKVDKKVEPKSC
chain 4: not shown
notes: also called 2+1 IgG Crossfab (anti-CD3)

Target: T1, cynomolgus MCSP D3 (cynomolgus, UniProt Q6UVK1 1582-2224 (human entry), limits assumed)
T1 construct: also called Cyno MCSP; cynomolgus homologue
T1 chain: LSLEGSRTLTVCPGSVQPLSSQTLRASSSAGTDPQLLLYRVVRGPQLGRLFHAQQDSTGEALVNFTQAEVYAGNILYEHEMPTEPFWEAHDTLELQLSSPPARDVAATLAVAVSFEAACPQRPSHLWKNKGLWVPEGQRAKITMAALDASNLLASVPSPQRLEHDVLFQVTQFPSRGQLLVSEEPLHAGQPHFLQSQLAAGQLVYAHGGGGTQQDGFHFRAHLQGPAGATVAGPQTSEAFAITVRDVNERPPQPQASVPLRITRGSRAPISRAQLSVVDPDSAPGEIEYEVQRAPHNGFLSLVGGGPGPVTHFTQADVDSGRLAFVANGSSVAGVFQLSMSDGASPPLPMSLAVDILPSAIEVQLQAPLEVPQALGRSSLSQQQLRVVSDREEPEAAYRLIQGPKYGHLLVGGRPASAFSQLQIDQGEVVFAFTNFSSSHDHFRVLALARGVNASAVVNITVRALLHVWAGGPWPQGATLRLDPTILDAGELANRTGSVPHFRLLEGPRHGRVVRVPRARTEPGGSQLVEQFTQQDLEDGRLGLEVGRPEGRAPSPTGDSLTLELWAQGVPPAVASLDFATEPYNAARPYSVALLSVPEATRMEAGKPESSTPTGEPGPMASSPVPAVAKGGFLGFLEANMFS
Assay: SPR ProteOn XPR36, 25 C; IgG captured via anti-human F(ab')2, MCSP D3 as analyte

First: B1
Second: B2
The Kd of the first is 3.3-fold higher: 2 nM for the first, 0.6 nM for the second. The second binds more tightly here.

B3 and B4 are within 1.5-fold of each other in Kd: 0.2 nM for the first, 0.3 nM for the second.

Target: T2, hu-MCSP(D3 domain)-avi-his (human, UniProt Q6UVK1 1582-2224)
T2 construct: Recombinant D3 domain with avi and his tags; also called human MCSP(D3 domain)-avi-his; Human MCSP D3
T2 sequence: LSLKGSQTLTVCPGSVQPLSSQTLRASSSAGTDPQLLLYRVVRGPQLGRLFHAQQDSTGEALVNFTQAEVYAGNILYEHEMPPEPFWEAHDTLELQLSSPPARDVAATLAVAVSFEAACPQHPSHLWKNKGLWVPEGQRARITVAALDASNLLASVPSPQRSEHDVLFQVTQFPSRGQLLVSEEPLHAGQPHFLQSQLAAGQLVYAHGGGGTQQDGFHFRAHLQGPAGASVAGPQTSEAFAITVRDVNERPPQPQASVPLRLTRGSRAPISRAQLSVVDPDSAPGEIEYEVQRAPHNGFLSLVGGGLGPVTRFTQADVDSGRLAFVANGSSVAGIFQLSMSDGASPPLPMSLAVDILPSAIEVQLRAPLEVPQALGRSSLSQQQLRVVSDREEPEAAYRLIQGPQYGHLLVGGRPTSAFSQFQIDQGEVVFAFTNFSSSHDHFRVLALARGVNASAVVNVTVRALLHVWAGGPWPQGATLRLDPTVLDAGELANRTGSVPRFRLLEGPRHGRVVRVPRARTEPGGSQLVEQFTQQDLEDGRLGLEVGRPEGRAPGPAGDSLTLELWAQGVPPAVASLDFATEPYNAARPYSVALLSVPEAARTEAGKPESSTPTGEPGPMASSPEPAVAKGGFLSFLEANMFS
Assay: as above

Compared with B1, B2 is 4-fold lower in Kd: 2 nM for the first, 0.5 nM for the second.

First: B3
Second: B4
The Kd of the first is 2.9-fold lower: 0.07 nM for the first, 0.2 nM for the second.

Target: T1, cynomolgus MCSP D3
Assay: SPR Biacore T200, 25 C; affinity: IgG captured via anti-human Fc, MCSP D3 as analyte
Description: (§1) For analyzing the avidity of the interaction of different anti-MCSP IgGs to human and cynomolgus MCSP D3 direct coupling of around 9,500 resonance units (RU) of the anti-Penta His antibody (Qiagen) was performed on a CM5 chip at pH 5.0 using the standard amine coupling kit (Biacore, Freiburg/Germany). Antigens were captured for 60 s at 30 nM with 10 μl/min respectively. IgGs were passed at a concentration of 0.0064-100 nM with a flowrate of 30 μl/min through the flow cells over 280 s. The dissociation was monitored for 180 s. Bulk refractive index differences were corrected for by subtracting the response obtained on reference flow cell. […] For affinity measurements IgGs were captured on a CM5 sensorchip surface with immobilized anti human Fc. Capture IgG was coupled to the sensorchip surface by direct immobilization of around 9,500 resonance units (RU) at pH 5.0 using the standard amine coupling kit (Biacore, Freiburg/Germany). IgGs are captured for 25 s at 10 nM with 30 μl/min. Human and cynomolgus MCSP D3 were passed at a concentration of 2-500 nM with a flowrate of 30 μl/min through the flow cells over 120 s. The dissociation was monitored for 60 s. […] Bulk refractive index differences were corrected for by subtracting the response obtained on reference flow cell.

Compared with B1, B2 is 3-fold lower in Kd: 11.4 nM for the first, 3.8 nM for the second. The second binds more tightly here.

B3 and B4 are within 1.5-fold of each other in Kd: 1.4 nM for the first, 1.3 nM for the second.

Target: T2, hu-MCSP(D3 domain)-avi-his
Assay: as above
Description: as §1

Going from B1 to B2, the Kd falls from 8.6 nM to 4.6 nM (1.9-fold).

B3 and B4 are the same in Kd: 1.8 nM for the first, 1.8 nM for the second.

Target: T3, human MCSP expressed on tumor cells (Colo-38, WM266-4, A375, MV-3, HCT-116) (human, UniProt Q6UVK1 30-2322)
T3 construct: whole, on cells; also called huMCSP; MCSP on cells
Assay: flow cytometry on WM266-4 cells
Description: (§2) Binding of the different bispecific constructs to CD3 on Jurkat cells (ATCC #TIB-152), and the respective tumor antigen on target cells, was determined by FACS. Briefly, cells were harvested, counted and checked for viability. 0.15-0.2 million cells per well (in PBS containing 0.1% BSA; 90 μl) were plated in a round-bottom 96-well plate and incubated with the indicated concentration of the bispecific constructs and corresponding IgG controls (10 μl) for 30 min at 4° C. […] After the incubation, cells were centrifuged (5 min, 350×g), washed with 150 μl PBS containing 0.1% BSA, resuspended and incubated for further 30 min at 4° C. with 12 μl/well of a FITC- or PE-conjugated secondary antibody. Bound constructs were detected using a FACSCantoII (Software FACS Diva). The “(scFv)₂” molecule was detected using a FITC-conjugated anti-His antibody (Lucerna, #RHIS-45F-Z). For all other molecules, a FITC- or PE-conjugated AffiniPure F(ab′)2 Fragment goat anti-human IgG Fcγ Fragment Specific (Jackson Immuno Research Lab #109-096-098/working solution 1:20, or #109-116-170/working solution 1:80, respectively) was used. Cells were washed by addition of 120 μl/well PBS containing 0.1% BSA and centrifugation at 350×g for 5 min. A second washing step was performed with 150 μl/well PBS containing 0.1% BSA. […] EC50 values were calculated using the GraphPad Prism software.

T3 sequence (Q6UVK1 30-2322): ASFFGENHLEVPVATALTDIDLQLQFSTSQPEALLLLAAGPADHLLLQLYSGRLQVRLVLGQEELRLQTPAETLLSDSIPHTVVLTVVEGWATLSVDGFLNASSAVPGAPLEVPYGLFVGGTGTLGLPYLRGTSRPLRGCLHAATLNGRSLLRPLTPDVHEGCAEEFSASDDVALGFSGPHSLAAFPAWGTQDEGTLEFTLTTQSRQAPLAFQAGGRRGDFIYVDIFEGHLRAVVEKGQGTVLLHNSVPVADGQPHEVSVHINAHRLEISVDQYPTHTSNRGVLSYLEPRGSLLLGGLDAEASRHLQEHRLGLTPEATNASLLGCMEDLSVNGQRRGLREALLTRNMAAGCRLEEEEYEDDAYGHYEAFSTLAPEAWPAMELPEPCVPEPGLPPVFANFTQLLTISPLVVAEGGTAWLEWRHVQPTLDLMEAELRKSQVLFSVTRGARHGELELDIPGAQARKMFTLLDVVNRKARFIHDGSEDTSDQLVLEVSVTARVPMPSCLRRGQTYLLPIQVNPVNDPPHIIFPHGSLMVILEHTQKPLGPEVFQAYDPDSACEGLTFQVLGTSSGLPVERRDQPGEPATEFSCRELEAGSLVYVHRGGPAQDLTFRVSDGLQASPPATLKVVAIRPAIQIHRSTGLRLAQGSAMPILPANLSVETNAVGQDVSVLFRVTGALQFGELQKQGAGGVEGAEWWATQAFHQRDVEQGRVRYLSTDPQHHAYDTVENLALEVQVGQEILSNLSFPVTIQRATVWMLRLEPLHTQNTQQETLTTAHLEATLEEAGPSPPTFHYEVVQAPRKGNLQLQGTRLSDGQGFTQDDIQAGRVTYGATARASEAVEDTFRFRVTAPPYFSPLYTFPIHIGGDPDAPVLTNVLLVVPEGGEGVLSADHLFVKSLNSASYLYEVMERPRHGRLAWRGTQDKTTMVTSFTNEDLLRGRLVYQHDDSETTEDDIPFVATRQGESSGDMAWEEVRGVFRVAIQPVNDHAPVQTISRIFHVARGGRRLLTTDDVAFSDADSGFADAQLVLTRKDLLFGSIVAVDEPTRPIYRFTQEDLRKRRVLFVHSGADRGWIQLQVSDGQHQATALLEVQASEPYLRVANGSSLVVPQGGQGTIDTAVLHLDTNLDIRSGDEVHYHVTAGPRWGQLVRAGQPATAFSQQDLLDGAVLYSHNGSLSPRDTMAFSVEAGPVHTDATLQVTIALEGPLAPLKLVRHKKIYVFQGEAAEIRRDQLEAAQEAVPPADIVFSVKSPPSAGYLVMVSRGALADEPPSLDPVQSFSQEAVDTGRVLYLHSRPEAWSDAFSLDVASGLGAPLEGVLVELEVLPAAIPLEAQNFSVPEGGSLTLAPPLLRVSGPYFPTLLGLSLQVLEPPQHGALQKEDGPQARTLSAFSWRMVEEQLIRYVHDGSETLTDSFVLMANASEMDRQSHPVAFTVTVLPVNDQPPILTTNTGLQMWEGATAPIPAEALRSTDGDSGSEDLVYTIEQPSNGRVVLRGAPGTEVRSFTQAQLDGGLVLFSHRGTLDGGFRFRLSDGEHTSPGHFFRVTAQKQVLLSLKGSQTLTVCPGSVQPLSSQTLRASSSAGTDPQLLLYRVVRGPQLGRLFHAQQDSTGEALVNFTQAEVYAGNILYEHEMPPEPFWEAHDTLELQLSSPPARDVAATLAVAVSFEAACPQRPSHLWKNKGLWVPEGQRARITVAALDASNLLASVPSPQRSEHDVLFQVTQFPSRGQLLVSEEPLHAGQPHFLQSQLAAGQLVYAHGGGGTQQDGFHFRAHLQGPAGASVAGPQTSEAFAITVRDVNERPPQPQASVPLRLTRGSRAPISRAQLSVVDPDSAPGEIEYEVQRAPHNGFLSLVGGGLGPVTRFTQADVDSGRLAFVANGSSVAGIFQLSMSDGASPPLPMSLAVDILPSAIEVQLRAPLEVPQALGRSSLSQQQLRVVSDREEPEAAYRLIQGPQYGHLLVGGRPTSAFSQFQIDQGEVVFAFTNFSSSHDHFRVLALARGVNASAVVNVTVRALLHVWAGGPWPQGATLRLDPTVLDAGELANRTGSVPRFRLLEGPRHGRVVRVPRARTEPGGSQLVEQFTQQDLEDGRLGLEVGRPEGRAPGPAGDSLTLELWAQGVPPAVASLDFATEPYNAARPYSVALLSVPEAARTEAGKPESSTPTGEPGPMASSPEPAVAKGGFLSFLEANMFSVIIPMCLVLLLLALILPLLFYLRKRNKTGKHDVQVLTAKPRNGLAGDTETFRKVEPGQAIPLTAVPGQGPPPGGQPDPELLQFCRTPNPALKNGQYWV

First: B5
Second: B6
The EC50 of the first is 5.4-fold lower: 0.57 nM for the first, 3.1 nM for the second. The first is the more potent here.

Target: T1, cynomolgus MCSP D3
Assay: SPR Biacore T200, 25 C; avidity: MCSP D3 captured via anti-Penta His, IgG as analyte
Description: as §1

Going from B1 to B2, the Kd falls from 0.0123 nM to 0.0044 nM (2.8-fold).

B3 and B4 are within 1.5-fold of each other in Kd: 0.0038 nM for the first, 0.0044 nM for the second.

Target: T2, hu-MCSP(D3 domain)-avi-his
Assay: as above
Description: as §1

B1 and B2 are within 1.5-fold of each other in Kd: 0.009 nM for the first, 0.0063 nM for the second.

B3 and B4 are within 1.5-fold of each other in Kd: 0.0045 nM for the first, 0.0046 nM for the second.

Target: T3, human MCSP expressed on tumor cells …
Assay: cell-based or functional assay

Going from B5 to B6, the “EC50 [pM] of T cell-mediated killing (LDH release), MV-3 cells, human PBMCs E:T 10:1, about 24 h” value rises from 4.1 pM to 11 pM.

First: B5
Second: B6
The “EC50 [pM] of T cell-mediated killing (LDH release), WM266-4 cells, human PBMCs E:T 10:1, about 24 h” value of the first is lower: 3.7 pM for the first, 11.3 pM for the second.

Target: T1, cynomolgus MCSP D3
Assay: ratio of ProteOn IgG KD, parent M4-3/ML2 against variant

Compared with B2, B3 is higher in “Fold increase over parent” value: 3.3 fold for the first, 10 fold for the second.

For B4, the “Fold increase over parent” value was 6.7 fold.

Target: T2, hu-MCSP(D3 domain)-avi-his
Assay: as above

Going from B2 to B3, the “Fold increase over parent” value rises from 4 fold to 28.6 fold.

For B4, the “Fold increase over parent” value was 10 fold.

Target: T4, human CD3 expressed on Jurkat cells (human, UniProt P07766 23-207)
T4 construct: CD3 complex on Jurkat T cells; also called CD3 on Jurkat cells; huCD3
Assay: flow cytometry on Jurkat cells
Description: as §2
As a control, the equivalent maximum concentration of the corresponding IgGs and the background staining due to the labeled 2ndary antibody (goat anti-human FITC-conjugated AffiniPure F(ab′)2 Fragment, FcγFragment-specific, Jackson Immuno Research Lab #109-096-098) were assessed as well.

T4 sequence (P07766 23-207 limits assumed): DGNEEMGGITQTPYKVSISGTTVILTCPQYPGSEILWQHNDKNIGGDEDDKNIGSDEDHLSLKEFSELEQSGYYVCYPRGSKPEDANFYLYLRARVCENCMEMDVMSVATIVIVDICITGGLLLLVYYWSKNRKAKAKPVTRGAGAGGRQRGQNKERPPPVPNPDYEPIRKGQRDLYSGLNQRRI

Going from B5 to B6, the EC50 rises from 6.1 nM to 10.3 nM (1.7-fold).
